Measured values: patent US20090326205A1 (LIV TECH, published 2009)

T1: purified recombinant hFA-1 protein (hDlk-1 extracellular region, FA-1) (human, UniProt P80370 24-303)
T1 construct: also called human FA1; purified FA-1; not shown: C-terminal Myc tag and His tag from vector pcDNA4/Myc-His
T1 sequence: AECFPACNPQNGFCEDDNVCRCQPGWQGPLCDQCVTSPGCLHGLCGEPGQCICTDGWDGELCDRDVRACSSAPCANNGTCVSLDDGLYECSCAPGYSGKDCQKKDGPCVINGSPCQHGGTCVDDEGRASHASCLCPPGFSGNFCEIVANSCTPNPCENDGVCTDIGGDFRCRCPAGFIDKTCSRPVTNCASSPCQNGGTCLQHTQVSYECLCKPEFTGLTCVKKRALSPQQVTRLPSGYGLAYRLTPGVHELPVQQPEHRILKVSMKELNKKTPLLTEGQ

T2: hDlk-1 EGF-like motif deletion construct EGF (4-6) expressed on COS-7 cells (human, UniProt P80370 131-244)
T2 construct: also called hDlk (EGF 4-6)-pME18-CHFX; hdlk-EGF (4-6)/pME18S-CFHX
T2 sequence: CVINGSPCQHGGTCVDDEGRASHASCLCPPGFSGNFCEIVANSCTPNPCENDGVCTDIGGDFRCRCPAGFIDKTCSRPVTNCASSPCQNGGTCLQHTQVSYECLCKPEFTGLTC

T3: hDlk-1 EGF-like motif deletion construct EGF (5-6) expressed on COS-7 cells (human, UniProt P80370 170-383)
T3 construct: also called hDlk (EGF 5-6)-pME18-CHFX
T3 sequence: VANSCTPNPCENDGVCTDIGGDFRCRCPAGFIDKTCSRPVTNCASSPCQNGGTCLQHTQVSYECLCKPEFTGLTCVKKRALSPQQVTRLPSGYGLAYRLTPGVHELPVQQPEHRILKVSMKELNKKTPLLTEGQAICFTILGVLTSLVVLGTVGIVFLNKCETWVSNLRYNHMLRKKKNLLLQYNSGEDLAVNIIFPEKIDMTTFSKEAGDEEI

B1: anti-hDlk-1 monoclonal antibody clone DI-2-14 (mouse IgG1) (antibody, V domains shown)
VH: EVQLQQSGAELVKPGASVKLSCTASGFNIRDTYIHWVKQRPEQGLEWIGRIDPPNGNLKYDPKFQGKATITADTSSNTAYLQFSSLTSEDTAVYYCARSDGYSFAYWGQGTLVTVSA
VL: DIVMTQAAPSVPVTPGESVSISCRSSKSLLHSNGNTYLYWFLQRPGQSPQLLIYRMSNLASGVPDRFSGSGSGTAFTLRISRVEAEDVGVYYCMQHVEYPFTFGSGTKLEIK
notes: also called mouse DI-2-14; mouse DI-2-14 antibody
B2: chimeric DI-2-14 antibody (ChDI-2-14), mouse-human chimeric DI-2-14 IgG1/K (antibody, V domains shown)
VH: B1 VH
VL: B1 VL
notes: domain: human γ1 heavy chain constant region; not shown: human kappa chain constant region (CL) of vector pChDI-2-14

Key:
[1] = target: T1, purified recombinant hFA-1 protein …; assay: ELISA, purified recombinant hFA-1 (0.5 to 1 µg/mL) immobilized, antibody dilution series
Experimental: ELISA was carried out in the same manner as described in Example 1, using an ELISA plate on which the purified recombinant hFA-1 protein (0.5 to 1 μg/mL) had been immobilized. Specifically, the ELISA plate was washed with a washing buffer 3 times and it was then blocked using a blocking solution at room temperature for 1 hour (or at 4° C. overnight). Thereafter, the plate was washed with a washing buffer 2 times and a mouse DI-2-14 antibody and a ChDI-2-14 antibody, wherein dilution series were produced using an ELISA buffer, were added to the plate, so that they were allowed to react (at 4° C. overnight). Thereafter, the plate was washed with a washing buffer 3 times and it was then allowed to react with HRP-labeled anti-mouse IgG (final concentration: 1 μg/mL) or HRP-labeled anti-human IgG (final concentration: 1 μg/mL) (both products manufactured by GE Healthcare), which had been diluted with a blocking solution.

[2] = target: T1, purified recombinant hFA-1 protein …; assay: ELISA method of Djavadi-Ohaniance: antibody (0.5 nM) equilibrated with hFA-1 (3.125-50 nM), then added to an hFA-1-coated plate
Experimental: Specifically, the purified recombinant hFA-1 protein (1 μg/mL) was added to a 96-well culture plate (Corning) to fix as an antigen (at room temperature for 1 hour). Subsequently, the plate was washed with PBS 3 times and 2% skim milk (PBS solution) was added thereto for blocking (at room temperature for 1 hour). After the plate had been washed with PBS 2 times, an antigen-antibody complex formed by previously mixing an antigen solution (a purified hFA-1 protein; 50, 25, 12.5, 6.25 and 3.125 nM) with each clone of the anti-hDlk-1 monoclonal antibody (0.5 nM) and then equilibrating the mixture was added to the aforementioned ELISA plate for a reaction (at room temperature for 1 hour). After the plate had been washed with PBS 3 times, it was allowed to react with HRP-labeled anti-mouse IgG (final concentration: 1 μg/mL) or HRP-labeled anti-rat IgG (final concentration: 1 μg/mL) (both of which were available from GE Healthcare Biosciences), which had been diluted with a blocking solution, at room temperature for 1 hour.
Subsequently, the affinity (dissociation constant) of these clones for an antigen was calculated by the aforementioned ELISA method. […] The affinity of the clone 2-13 for the purified recombinant hFA-1 was not high and thus the Kd value thereof could not be calculated by the aforementioned method.

[3] = target: T2, hDlk-1 EGF-like motif deletion …; assay: FACS and immunostaining of transfected COS-7 cells
Text: (§1) Each of expression vectors hDlk (EGF 1-2)-pME-CHFX, hDlk (EGF 1-3)-pME-CHFX, hDlk (EGF 3-4)-pME-CHFX, hDlk (EGF 4-6)-pME18-CHFX and hDlk (EGF 5-6)-pME18-CHFX (FIG. 7) was introduced into COS-7 cells and they were then subjected to FACS analysis and the immunostaining of Cytospin specimens, so as to examine sites in a region containing 6 EGF-like motifs existing in the FA-1 region (extracellular region) of hDlk-1, which were recognized by each anti-hDlk-1 monoclonal antibody.
(§2) It has been reported that, among mouse IgG isotypes, IgG2a and IgG2b have strong antibody-dependent cytotoxic activity (ADCC) and that the ADCC of IgG1 is low (please refer to Kipps, T. J. et al., 1985). The isotype of the clone DI-2-14 is mouse IgG1.

[4] = target: T3, hDlk-1 EGF-like motif deletion …; assay: FACS and immunostaining of transfected COS-7 cells
Text: as §1, §2

Row | Binder | EC50 [1] [µg/mL] | Kd [2] [nM] | binding result [3] | binding result [4]
1 | B1 | 0.01 | 9.26 | no binding | no binding
2 | B2 | 0.01 | – | – | –
